This note sets out measurements from US20180237497A1 (CANCER RESEARCH TECHNOLOGY, published 2018).

The target of test [1] is T1, human IGF2^1-67 (mature insulin-like growth factor 2) (human, UniProt P01344 25-91, biotinylated (site not stated) where immobilised on the chip (Tables 1-4)).
T1 construct: mature; also called mature IGF2; biotinylated IGF2
Description: SPR steady state, biotin-IGF2 on chip, pH 7.4. An outline of the steps:
(§1)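 Biacore SPR at 25 °C in HBS-EP pH 7.4 or MES-EP pH 6.5, flow 40 μL/min; ~50 RU biotin-IGF2:biotin-ubiquitin (1:8) on streptavidin chip, or Fc-domain 11 captured via anti-human IgG. Kinetics fitted to 1:1 model; steady-state affinity from response averaged 5 s before injection end.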

In test [2] the target is T1, human IGF2^1-67 (mature insulin-like …). Description: SPR. From the text:
Surface plasmon resonance (SPR) binding analysis of recombinant M6P/IGF2R domain 11 mutants interaction with IGF2. Kon indicates association (on) rate; koff, dissociation (off) rate; RU, response units. Binding to IGF2 assessed with BIAcore T200 using purified biotinylated IGF2 and IGF1 on a streptavidin biosensor chip. Recombinant proteins were expressed either in E. coli and/or P. pastoris. All the mutants in the FG and CD loops are on the domain 11^AB5 background for the AB loop unless otherwise stated. All experiments were carried out at 25° C. in HBS-EP buffer (pH 7.4), were repeated 2-5 times on two independent BIAcore chips. nd=not determined. Data for KD expressed as mean of each experiment, and means of kon and koff are shown.
(§2) Final kinetic analysis of mutants by SPR was conducted using a Biacore T200 biosensor at 25° C. in either HBS-EP (10 mM HEPES pH 7.4, 150 mM NaCl, 3 mM EDTA, and 0.005% (v/v) surfactant P20) or MES-EP (20 mM MES pH 6.5, 150 mM NaCl, 3 mM EDTA, and 0.005% (v/v) surfactant P20) at a flow-rate of 40 μL min⁻¹. […] For the analysis of the Fc-domain 11^AB5 interaction, approximately 50 RU of a biotinylated IGF2:biotinylated ubiquitin mixture (1:8 proportion) was immobilized on the CM5-streptavidin chip. This interaction was also analysed by immobilizing the Fc-domain 11^AB5 and Fc-domain 11^AB5-RHH (or Fc-domain 11^I1572A as control) by Human Antibody Capture (monoclonal mouse anti-human IgG antibody immobilised on a CM5 chip by amine coupling, GE Healthcare) with and without human IgG1 Fc fragment (Bethyl Laboratories, UK) in the control flow cell. […] T200 BiaEvaluation software (GE Healthcare) was used to fit the resulting curves according to a 1:1 binding model.
On the technique in general: In SPR one partner is held on a chip, and binding of the other changes the refractive index at the surface.

For test [3] the target is unchanged. Description: SPR kinetic, biotin-IGF2 on chip, pH 6.5. Here is the method:
Measurements were carried out at 25° C. in MES-EP buffer, 20 mM MES pH 6.5, 150 mM NaCl, 3 mM EDTA, and 0.005% (v/v) surfactant P20). Data for KD expressed as mean of each experiment, and means of kon and koff are shown.
as §2, with “model. Steady state affinities were determined using the kinetic data, taking the response average at 5 seconds before injection end and for 5 seconds average. Thermodynamic data was performed across the temperature range of 10° C. to 30° C., van't Hoff and Erying plots generated and ΔH, −TΔS and ΔG values determined as previously described.” for “model.”

Test [4] shares this target. Description: SPR (Biacore T200, 25 °C, HBS-EP pH 7.4); ΔΔG° = RT ln(KD mutant / KD domain 11^AB3); box AB. Here is the method: (§3) Boxes show the change in the binding free energy contribution, ΔΔGº, for the indicated mutants. The loop/s that contains the mutation/s is indicated in each box. The ΔΔGº values were calculated as ΔΔGº=ΔGº domain 11^mutant−ΔGº domain 11^AB3=RTln(KD domain 11^mutant/KD domain 11^AB3). Additive and non-additive contributions of single point mutations are shown when calculated with a box solid line and dashed line, respectively.
(§4) Final kinetic analysis of mutants by SPR was conducted using a Biacore T200 biosensor at 25° C. in either HBS-EP (10 mM HEPES pH 7.4, 150 mM NaCl, 3 mM EDTA, and 0.005% (v/v) surfactant P20) or MES-EP (20 mM MES pH 6.5, 150 mM NaCl, 3 mM EDTA, and 0.005% (v/v) surfactant P20) at a flow-rate of 40 μL min⁻¹. […] This interaction was also analysed by immobilizing the Fc-domain 11^AB5 and Fc-domain 11^AB5-RHH (or Fc-domain 11^I1572A as control) by Human Antibody Capture (monoclonal mouse anti-human IgG antibody immobilised on a CM5 chip by amine coupling, GE Healthcare) with and without human IgG1 Fc fragment (Bethyl Laboratories, UK) in the control flow cell. […] Steady state affinities were determined using the kinetic data, taking the response average at 5 seconds before injection end and for 5 seconds average.

Test [5] has the same target. Description: SPR kinetic, biotin-IGF2 on chip, pH 7.4. In a few lines:
as §1

For test [6] the target is unchanged. Description: SPR kinetic, biotin-IGF2 on chip, pH 7.4. In a few lines:
(§5)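 Biotinylated IGF2 captured on streptavidin chip; recombinant M6P/IGF2R domain 11 mutants (E. coli or P. pastoris) injected at 25° C in HBS-EP, pH 7.4, 40 μL min⁻¹. Kinetics fitted to 1:1 model; steady-state KD from 5 s response averages before injection end; 2-5 repeats on two chips.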
The source holds these as a separate data set.

For test [7] the target is unchanged. Nature of the test: SPR steady state, biotin-IGF2 on chip, pH 7.4. An outline of the steps: as §5
The source holds these as a separate data set.

Test [8] shares this target. Nature of the test: SPR (Biacore T200, 25 °C, HBS-EP pH 7.4); ΔΔG° = RT ln(KD mutant / KD domain 11^AB3); box AB+CD+FG+FG, solid outline. Here is the method:
as §3, §4

The target is the same in test [9]. Description: SPR, pH 7.4; pH 7.4. Here is the method: as §2, with “model. Steady state affinities were determined using the kinetic data, taking the response average at 5 seconds before injection end and for 5 seconds average. Thermodynamic data was performed across the temperature range of 10° C. to 30° C., van't Hoff and Erying plots generated and ΔH, −TΔS and ΔG values determined as previously described.” for “model.”

Test [10] has the same target. Description: SPR, biotin-IGF2 on chip, lower pH (6.5); reference domain 11^WT. Here is the method: as §2, with “model. Steady state affinities were determined using the kinetic data, taking the response average at 5 seconds before injection end and for 5 seconds average. Thermodynamic data was performed across the temperature range of 10° C. to 30° C., van't Hoff and Erying plots generated and ΔH, −TΔS and ΔG values determined as previously described.” for “model.”

Test [11] has the same target. Nature of the test: SPR (Biacore T200, 25 °C, HBS-EP pH 7.4); ΔΔG° = RT ln(KD mutant / KD domain 11^AB3); box AB+CD+FG+FG. Here is the method:
as §3, §4

T1 sequence (P01344 25-91): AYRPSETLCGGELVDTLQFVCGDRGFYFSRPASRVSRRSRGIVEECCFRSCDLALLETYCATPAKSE

B1: IGF2R domain 11^AB5 (receptor)
chain: MKSNEHDDCQVTNPSTGHLFDLSSLSGRAGFTAAYAKGWGVYMSICGENENCPPGVGACFGQTRISVGKANKRLRYVDQVLQLVYKDGSPCPSKSGLSYKSVISFVCRPEAGPTNRPMLISLDKQTCTLFFSWHTPLACEQATECSV
notes: His6-tagged soluble domain 11; also called 1542YAKGWG1547
For the molecule B1, the Kd (as a rule, the equilibrium constant for the complex coming apart) in [1] came to 6.44 nM; in test [3], 4.38 nM; in test [5], 5.07 nM; in test [6], 5.07 nM; in test [7], 6.44 nM. Moreover, in test [2], the “fold higher affinity than domain 11^WT” value is 10 fold. Moreover, the koff (commonly the first-order rate constant of dissociation) in [3] was 0.018 s⁻¹; in test [5] it was 0.0208 s⁻¹; in test [6], 0.0208 s⁻¹. Also, the kon (commonly a measure of how fast the partners come together) in test [3] came to 4.17e+06 M⁻¹ s⁻¹; in test [5], 4.21e+06 M⁻¹ s⁻¹; in test [6], 4.21e+06 M⁻¹ s⁻¹. Moreover, in test [4], the ΔΔG was -0.65 kcal/mol.

B2: domain 11^AB5 Q1569R P1597H S1602H (receptor)
chain: MKSNEHDDCQVTNPSTGHLFDLSSLSGRAGFTAAYAKGWGVYMSICGENENCPPGVGACFGRTRISVGKANKRLRYVDQVLQLVYKDGSHCPSKHGLSYKSVISFVCRPEAGPTNRPMLISLDKQTCTLFFSWHTPLACEQATECSV
notes: See m5
For B2, the Kd in [1] came out at 2 nM. In [3], the Kd was determined as 0.71 nM, the koff came out at 0.003 s⁻¹ and the kon amounted to 4.41e+06 M⁻¹ s⁻¹. Moreover, in [5], binding was put at a Kd of 0.65 nM, the koff amounted to 0.0038 s⁻¹ and the kon was 5.9e+06 M⁻¹ s⁻¹. In test [8], the ΔΔG was -1.87 kcal/mol.

B3: domain 11^AB3 Q1569R P1597H S1602H G1603K (receptor)
chain: MKSNEHDDCQVTNPSTGHLFDLSSLSGRAGFTAAYSKSGVVYMSICGENENCPPGVGACFGRTRISVGKANKRLRYVDQVLQLVYKDGSHCPSKHKLSYKSVISFVCRPEAGPTNRPMLISLDKQTCTLFFSWHTPLACEQATECSV
notes: See m5
As for B3, the Kd was found to be 1.31 nM in test [1], 0.43 nM in [3], 0.62 nM in [5] and 0.78 nM in [9]. Moreover, the figures for the koff in [3] and in test [5] were 0.0087 s⁻¹ and 0.0108 s⁻¹, respectively. Further, the values for the kon in [3] and in [5] were 2.43e+07 M⁻¹ s⁻¹ and 1.75e+07 M⁻¹ s⁻¹, respectively. Also, the “fold improved overall affinity compared to domain 11^WT” value in test [10] came out at 100 fold. This molecule showed a ΔΔG in test [11] of -1.9 kcal/mol.
